Results on one variant are retold here after IntAct's records for PubMed 9468139.

B1: Retinoblastoma-associated protein (Homo sapiens), P06400 (parent)
chain: MPPKTPRKTAATAAAAAAEPPAPPPPPPPEEDPEQDSGPEDLPLVRLEFEETEEPDFTALCQKLKIPDHVRERAWLTWEKVSSVDGVLGGYIQKKKELWGICIFIAAVDLDEMSFTFTELQKNIEISVHKFFNLLKEIDTSTKVDNAMSRLLKKYDVLFALFSKLERTCELIYLTQPSSSISTEINSALVLKVSWITFLLAKGEVLQMEDDLVISFQLMLCVLDYFIKLSPPMLLKEPYKTAVIPINGSPRTPRRGQNRSARIAKQLENDTRIIEVLCKEHECNIDEVKNVYFKNFIPFMNSLGLVTSNGLPEVENLSKRYEEIYLKNKDLDARLFLDHDKTLQTDSIDSFETQRTPRKSNLDEEVNVIPPHTPVRTVMNTIQQLMMILNSASDQPSENLISYFNNCTVNPKESILKRVKDIGYIFKEKFAKAVGQGCVEIGSQRYKLGVRLYYRVMESMLKSEEERLSIQNFSKLLNDNIFHMSLLACALEVVMATYSRSTSQNLDSGTDLSFPWILNVLNLKAFDFYKVIESFIKAEGNLTREMIKHLERCEHRIMESLAWLSDSPLFDLIKQSKDREGPTDHLESACPLNLPLQNNHTAADMYLSPVRSPKKKGSTTRVNSTANAETQATSAFQTQKPLKSTSLSLFYKKVYRLAYLRLNTLCERLLSEHPELEHIIWTLFQHTLQNEYELMRDRHLDQIMMCSMYGICKVKNIDLKFKIIVTAYKDLPHAVQETFKRVLIKEEEYDSIIVFYNSVFMQRLKTNILQYASTRPPTLSPIPHIPRSPYKFPSSPLRIPGGNIYISPLKSPYKISEGLPTPTKMTPRSRILVSIGESFGTSEKFQKINQMVCNSDRVLKRSAEGSNPPKPLKKLRFDIEGSDEADGSKHLPGESKFQQKLAEMTSTRTRMQKQKMNDSMDTSNKEEK

The experiment covers variants of B1. The note with it: with hdac1_human HDAC1, Q13547.
Chain of hdac1_human HDAC1, Q13547 (Q13547 whole entry): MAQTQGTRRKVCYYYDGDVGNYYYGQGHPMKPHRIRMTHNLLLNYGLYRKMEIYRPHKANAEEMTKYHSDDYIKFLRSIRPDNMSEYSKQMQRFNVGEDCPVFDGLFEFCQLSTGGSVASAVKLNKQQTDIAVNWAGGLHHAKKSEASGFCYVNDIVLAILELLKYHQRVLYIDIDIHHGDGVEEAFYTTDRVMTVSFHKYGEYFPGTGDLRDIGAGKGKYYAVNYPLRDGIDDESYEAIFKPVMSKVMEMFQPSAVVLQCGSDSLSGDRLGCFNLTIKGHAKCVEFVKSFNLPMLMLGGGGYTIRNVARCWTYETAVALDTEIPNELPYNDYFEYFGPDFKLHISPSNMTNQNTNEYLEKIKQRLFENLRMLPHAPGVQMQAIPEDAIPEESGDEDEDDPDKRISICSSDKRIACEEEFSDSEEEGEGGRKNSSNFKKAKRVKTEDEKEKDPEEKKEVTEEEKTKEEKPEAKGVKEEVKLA
On to C706F, for which the “effect of a mutation on the interaction” value is “decreasing interaction”.
